Laboratory results from US20240376151A1, “STAPLED PEPTIDES AND METHODS THEREOF” (FOG PHARMACEUTICALS, INC., priority 2022, published 2024).

Target: T1, beta-catenin (Homo sapiens, UniProt P35222)
T1 construct: made in house; host or cells: E. coli BL21 (DE3) pLysS
T1 sequence (P35222 134-665): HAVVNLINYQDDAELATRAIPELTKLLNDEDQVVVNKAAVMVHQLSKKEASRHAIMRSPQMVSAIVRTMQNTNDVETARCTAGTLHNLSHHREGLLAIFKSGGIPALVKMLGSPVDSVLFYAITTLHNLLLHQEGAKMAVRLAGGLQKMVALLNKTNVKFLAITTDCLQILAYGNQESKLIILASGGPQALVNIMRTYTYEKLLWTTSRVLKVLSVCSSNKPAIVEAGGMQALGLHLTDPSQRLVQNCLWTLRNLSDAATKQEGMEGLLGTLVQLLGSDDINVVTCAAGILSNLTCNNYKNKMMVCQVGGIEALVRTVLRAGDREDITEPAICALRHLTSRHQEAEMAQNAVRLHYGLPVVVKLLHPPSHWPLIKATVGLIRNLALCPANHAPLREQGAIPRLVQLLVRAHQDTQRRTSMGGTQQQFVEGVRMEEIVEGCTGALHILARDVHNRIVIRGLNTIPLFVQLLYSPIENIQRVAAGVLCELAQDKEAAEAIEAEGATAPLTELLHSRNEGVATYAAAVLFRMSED
Assay: Phage Library Screening with NGS, beta-catenin
Type: binding
Conditions: for Target Concentration 10 (phage screen NGS readout): beta-catenin target concentration 10; for Target Concentration 10 (phage screen NGS readout) / Target Concentration 30 (phage screen NGS readout) / Target Concentration 100 (phage screen NGS readout) / Target Concentration 300 (phage screen NGS readout): no competitor; for Target Concentration 30 (phage screen NGS readout): beta-catenin target concentration 30; for Target Concentration 100 (phage screen NGS readout): beta-catenin target concentration 100; for Target Concentration 300 (phage screen NGS readout): beta-catenin target concentration 300; for Target Concentration 1000 (phage screen NGS readout): beta-catenin target concentration 1000

Row | Molecule | Target Concentration BLANK (phage screen NGS readout) (first column) | Target Concentration BLANK (phage screen NGS readout) (fourth column) | Target Concentration BLANK (phage screen NGS readout) (second column) | Target Concentration BLANK (phage screen NGS readout) (third column) | Target Concentration 10 (phage screen NGS readout) | Target Concentration 30 (phage screen NGS readout) | Target Concentration 100 (phage screen NGS readout) | Target Concentration 300 (phage screen NGS readout) | Target Concentration 1000 (phage screen NGS readout) (first 1000 column) | Target Concentration 1000 (phage screen NGS readout) (second 1000 column)
1 | DPAVLECHIAAWECRMD | 0 | 0 | 0 | 0 | 0 | 0 | 24 | 83 | 91 | 45
2 | DPAIIRCYEAAFYCQNY | 0 | 0 | 0 | 1 | 0 | 3 | 10 | 67 | 93 | 94
3 | DPANVECEWAAIHCSLV | 0 | 0 | 0 | 0 | 13 | 2 | 19 | 158 | 164 | 187
4 | DPAMVTCYEAAYVCQYF | 0 | 0 | 0 | 0 | 0 | 0 | 0 | 0 | 7 | 0
5 | DPAIFNCTMAALECTQI | 0 | 0 | 0 | 0 | 0 | 0 | 2 | 3 | 19 | 0
6 | DPAILECHMAAFECYIE | 0 | 0 | 0 | 0 | 8 | 2 | 20 | 59 | 86 | 41
7 | DPAILDCQLAAIDCVYT | 0 | 0 | 0 | 0 | 3 | 21 | 67 | 168 | 201 | 114
8 | DPAENTCSWAAEHCALV | 0 | 0 | 0 | 0 | 0 | 0 | 0 | 26 | 28 | 31
9 | DPAVIACYDAAFVCEYF | 0 | 0 | 1 | 0 | 0 | 0 | 0 | 0 | 3 | 3
10 | DPAWQNCTWAAFHCELL | 0 | 0 | 1 | 0 | 0 | 10 | 52 | 194 | 158 | 163
11 | DPAMIQCQWAAEHCELI | 0 | 0 | 1 | 0 | 0 | 0 | 4 | 33 | 19 | 42

Now from value to molecule:

Row | Target Concentration BLANK (phage screen NGS readout) (first column) | Target Concentration BLANK (phage screen NGS readout) (fourth column) | Target Concentration BLANK (phage screen NGS readout) (second column) | Target Concentration BLANK (phage screen NGS readout) (third column) | Target Concentration 10 (phage screen NGS readout) | Target Concentration 30 (phage screen NGS readout) | Target Concentration 100 (phage screen NGS readout) | Target Concentration 300 (phage screen NGS readout) | Target Concentration 1000 (phage screen NGS readout) (first 1000 column) | Target Concentration 1000 (phage screen NGS readout) (second 1000 column) | Molecule
12 | 3 | 0 | 3 | 1 | 5 | 18 | 85 | 337 | 283 | 227 | DPAYWVCEHAALLCTDY
13 | 0 | 0 | 0 | 0 | 0 | 0 | 10 | 28 | 10 | 81 | DPAVFECSLAAIDCLQI
14 | 0 | 0 | 1 | 0 | 0 | 2 | 47 | 96 | 104 | 118 | DPAHWVCEHAALNCDQN
15 | 1 | 0 | 0 | 1 | 0 | 0 | 4 | 27 | 29 | 18 | DPAIMACYQAAFWCQYN
16 | 1 | 1 | 2 | 3 | 19 | 41 | 163 | 495 | 605 | 424 | CC[C@H](C)[C@H](NC(=O)[C@H](C)NC(=O)[C@H](C)NC(=O)[C@H](Cc1c[nH]c2ccccc12)NC(=O)[C@H](CCC(=O)O)NC(=O)[C@H](CS)NC(=O)[C@H](CC(C)C)NC(=O)[C@H](CCC(=O)O)NC(=O)[C@H](CO)NC(=O)[C@H](C)NC(=O)[C@@H]1CCCN1C(=O)[C@H](CC(=O)O)NC(C)=O)C(=O)N[C@@H](Cc1c[nH]cn1)C(=O)N[C@@H](CS)C(=O)N[C@@H](CC(=O)O)C(=O)N[C@@H](CC(C)C)C(=O)N[C@H](C(N)=O)C(C)C
17 | 0 | 0 | 0 | 0 | 0 | 0 | 10 | 8 | 13 | 10 | DPALWNCDHAALLCDHQ
18 | 0 | 0 | 0 | 0 | 0 | 0 | 5 | 11 | 15 | 11 | DPAQFYCEHAALLCRWE
